In the supplement of paper PMC10567573 one finds protein stability index data, which are given here for 94 variants.

B1: LRRC45 (parent)
chain: DLSAANEKNLLLQNQVDELERKFR
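Note: lentivirally expressed fusions sorted by FACS into six bins by GFP to DsRed ratio, PSI derived from sequencing read proportions per bin multiplied by bin number.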

In this data set the parent is B1. The data set is described as follows: protein stability index of a GFP-peptide fusion (GPS, HEK-293T) (PSI 1-6); higher = more stable. Particulars: c terminus: a fixed tail appended.
As to DLSAANEKNLLLQNQVDELERAFR, the protein stability index worked out at 4.27.
Turning to DLSAANEKNLLLQNQVDELERFFR, the protein stability index was determined as 3.
As to DLSAANEKNLLLQNQVDELERIFR, the protein stability index was 3.01.
DLSAANEKNLLLQNQVDELERDFR: the protein stability index was 4.31.
The figure for DLSAANEKNLLLQNQVDELERCFR is 3.47.
Consider DLSAANEKNLLLQNQVDELERGFR, for which the protein stability index came to 3.62.
In the case of DLSAANEKNLLLQNQVDELERHFR it was 3.86.
For DLSAANEKNLLLQNQVDELEREFR, the protein stability index was found to be 4.26.
As for DLSAANEKNLLLQNQVDELARKFR, the protein stability index came to 3.96.
Turning to DLSAANEKNLLLQNQVDELMRKFR, the protein stability index stood at 2.81.
As to DLSAANEKNLLLQNQVDELRRKFR, the protein stability index was 3.06.
As to DLSAANEKNLLLQNQVDELNRKFR, the protein stability index came out at 3.27.
In the case of DLSAANEKNLLLQNQVDELFRKFR it was 2.54; in that of DLSAANEKNLLLQNQVDELHRKFR, 3.35; in that of DLSAANEKNLLLQNQVDELLRKFR, 3.23.
Turning to DLSAANEKNLLLQNQVDELCRKFR, the protein stability index was 3.73.
As for DLSAANEKNLLLQNQVDELTRKFR, the protein stability index stood at 3.43.
In the case of DLSAANEKNLLLQNQVDELYRKFR it was 2.86.
In the case of DLSAANEKNLLLQNQVDELVRKFR it was 3.75; in that of DLSAANEKNLLLQNQVDELKRKFR, 3.2.
In the case of DLSAANEKNLLLQNQVDELPRKFR it was 3.12.
Take DLSAANEKNLLLQNQVDELQRKFR: the protein stability index worked out at 3.47.
For the variant DLSAANEKNLLLQNQVDELSRKFR, the protein stability index was found to be 3.8.
On to DLSAANEKNLLLQNQVDELIRKFR, for which the protein stability index is 3.47.
Consider DLSAANEKNLLLQNQVDELWRKFR, for which the protein stability index was 2.91.
With DLSAANEKNLLLQNQVDELGRKFR, the protein stability index stood at 3.22.
With DLSAANEKNLLLQNQVDELDRKFR, the protein stability index worked out at 4.25.
As for DLSAANEKNLLLQNQVDELELKFR, the protein stability index came out at 3.74.
Consider DLSAANEKNLLLQNQVDELEQKFR, for which the protein stability index was 4.09.
The figure for DLSAANEKNLLLQNQVDELEPKFR is 4.2; for DLSAANEKNLLLQNQVDELEGKFR it is 4.49; for DLSAANEKNLLLQNQVDELEAKFR it is 4.09.
In the case of DLSAANEKNLLLQNQVDELEEKFR it was 4.56; in that of DLSAANEKNLLLQNQVDELEIKFR, 3.55.
Take DLSAANEKNLLLQNQVDELETKFR: the protein stability index is 4.
As for DLSAANEKNLLLQNQVDELEMKFR, the protein stability index was determined as 3.97.
As for DLSAANEKNLLLQNQVDELECKFR, the protein stability index amounted to 3.74.
With DLSAANEKNLLLQNQVDELEVKFR, the protein stability index worked out at 4.05.
With DLSAANEKNLLLQNQVDELEYKFR, the protein stability index worked out at 4.14.
Consider DLSAANEKNLLLQNQVDELEWKFR, for which the protein stability index worked out at 3.63.
In the case of DLSAANEKNLLLQNQVDELEDKFR it was 4.28; in that of DLSAANEKNLLLQNQVDELESKFR, 4.23.
Take DLSAANEKNLLLQNQVDELEHKFR: the protein stability index was 4.22.
For DLSAANEKNLLLQNQVDELEKKFR, the protein stability index turned out to be 3.93.
The figure for DLSAANEKNLLLQNQVDELEFKFR is 3.57.
In the case of DLSAANEKNLLLQNQVDELENKFR it was 4.47; in that of DLSAANEKNLLLQNQVDEQERKFR, 3.99.
With DLSAANEKNLLLQNQVDENERKFR, the protein stability index worked out at 4.27.
On to DLSAANEKNLLLQNQVDECERKFR, for which the protein stability index was 4.16.
The figure for DLSAANEKNLLLQNQVDEAERKFR is 4.58; for DLSAANEKNLLLQNQVDEVERKFR it is 4.31; for DLSAANEKNLLLQNQVDEDERKFR it is 5.16.
As to DLSAANEKNLLLQNQVDEHERKFR, the protein stability index stood at 4.12.
As for DLSAANEKNLLLQNQVDETERKFR, the protein stability index came out at 4.34.
With DLSAANEKNLLLQNQVDEMERKFR, the protein stability index was found to be 4.03.
As to DLSAANEKNLLLQNQVDERERKFR, the protein stability index was determined as 3.68.
For DLSAANEKNLLLQNQVDEYERKFR, the protein stability index is 3.48.
On to DLSAANEKNLLLQNQVDEWERKFR, for which the protein stability index turned out to be 3.75.
Take DLSAANEKNLLLQNQVDEPERKFR: the protein stability index came to 3.78.
For the variant DLSAANEKNLLLQNQVDEKERKFR, the protein stability index is 3.92.
DLSAANEKNLLLQNQVDEIERKFR: the protein stability index was 4.24.
Regarding DLSAANEKNLLLQNQVDEEERKFR, the protein stability index worked out at 4.57.
As to DLSAANEKNLLLQNQVDEFERKFR, the protein stability index is 3.76.
Take DLSAANEKNLLLQNQVDESERKFR: the protein stability index turned out to be 4.34.
The figure for DLSAANEKNLLLQNQVDEGERKFR is 4.41; for DLSAANEKNLLLQNQVDILERKFR it is 2.49; for DLSAANEKNLLLQNQVDTLERKFR it is 3.7.
In the case of DLSAANEKNLLLQNQVDGLERKFR it was 3.67; in that of DLSAANEKNLLLQNQVDFLERKFR, 3.16.
In the case of DLSAANEKNLLLQNQVDLLERKFR, the protein stability index stood at 3.31.
DLSAANEKNLLLQNQVDDLERKFR: the protein stability index is 5.06.
The figure for DLSAANEKNLLLQNQVDCLERKFR is 3.4; for DLSAANEKNLLLQNQVDNLERKFR it is 3.56; for DLSAANEKNLLLQNQVDKLERKFR it is 3.94.
As for DLSAANEKNLLLQNQVDYLERKFR, the protein stability index was found to be 3.26.
The figure for DLSAANEKNLLLQNQVDQLERKFR is 3.56.
DLSAANEKNLLLQNQVDRLERKFR: the protein stability index was 2.96.
As for DLSAANEKNLLLQNQVDPLERKFR, the protein stability index amounted to 3.91.
As to DLSAANEKNLLLQNQVDMLERKFR, the protein stability index is 3.23.
For the variant DLSAANEKNLLLQNQVDALERKFR, the protein stability index was found to be 3.57.
Regarding DLSAANEKNLLLQNQVDWLERKFR, the protein stability index was found to be 3.36.
As for DLSAANEKNLLLQNQVDSLERKFR, the protein stability index was 3.33.
The figure for DLSAANEKNLLLQNQVDHLERKFR is 3.35; for DLSAANEKNLLLQNQVDVLERKFR it is 3.44.
DLSAANEKNLLLQNQVPELERKFR: the protein stability index worked out at 3.57.
The figure for DLSAANEKNLLLQNQVMELERKFR is 3.58.
Consider DLSAANEKNLLLQNQVVELERKFR, for which the protein stability index turned out to be 3.4.
With DLSAANEKNLLLQNQVRELERKFR, the protein stability index was 2.97.
Take DLSAANEKNLLLQNQVYELERKFR: the protein stability index is 3.23.
The figure for DLSAANEKNLLLQNQVNELERKFR is 3.52; for DLSAANEKNLLLQNQVTELERKFR it is 2.96.
Take DLSAANEKNLLLQNQVSELERKFR: the protein stability index amounted to 3.46.
Take DLSAANEKNLLLQNQVWELERKFR: the protein stability index stood at 2.9.
In the case of DLSAANEKNLLLQNQVQELERKFR, the protein stability index was 3.66.
